From article PMC8110528, “MyD88 TIR domain higher-order assembly interactions revealed by microcrystal electron diffraction and serial femtosecond crystallography” (Nature Communications, 2021) come the findings set out here.

This test concerns the target T1, GFP-MAL^TIR fusion protein (EGFP residues 3-239; MAL residues 79-221) (UniProt P58753 79-221).
T1 construct: MAL (MyD88 adaptor-like/TIRAP), TIR domain, residues 79-221; Printed order of the fusion: EGFP residues 3-239, GSGGS linker, MAL residues 79-221, in pMCSG7; source: E. coli BL21 (DE3), purified (HisTrap FF, Superdex 75)
The experiment in a line: crystal growth assay (DIC and GFP fluorescence microscopy); GFP-MAL^TIR-MyD88^TIR or MAL^TIR-MyD88^TIR seeds washed three times, diluted and mixed with MyD88^TIR (95 µM); 10 mM HEPES pH 7.5, 150 mM NaCl, 30 °C. To be noted: both partners purified.

T1 sequence (P58753 79-221): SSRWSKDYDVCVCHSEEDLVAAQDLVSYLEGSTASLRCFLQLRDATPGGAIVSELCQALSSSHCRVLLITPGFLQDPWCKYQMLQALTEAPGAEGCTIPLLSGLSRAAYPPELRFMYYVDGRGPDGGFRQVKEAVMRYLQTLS

B1: MyD88 TIR domain (MyD88^TIR), residues 155-296 (domain or fragment, human, UniProt Q99836 155-296, looked up)
chain: GHMPERFDAFICYCPSDIQFVQEMIRQLEQTNYRLKLCVSDRDVLPGTCVWSIASELIEKRCRRMVVVVSDDYLQSKECDFQTKFALSLSPGAHQKRLIPIKYKAMKKEFPSILRFITVCDYTNPCTKSWFWTRLAKALSLP
notes: MyD88 (myeloid differentiation primary response gene 88), TIR domain, residues 155-296 in pET28b; Forms open-ended two-stranded higher-order assemblies in the MAL-induced microcrystals; source: E. coli BL21 (DE3), purified (HisTrap FF, Superdex 75)
B1: the binding result was “binds”.
